Test results taken from PMC4164784, “4E-BPs require non-canonical 4E-binding motifs and a lateral surface of eIF4E to repress translation” (Nature Communications, 2014).
No end group written: not given here.

T1: Dm eIF4E (residues 69–248, WT) (Drosophila melanogaster, UniProt P48598)
T1 construct: The truncated His6-eIF4E (residues 69–248) that was used in the ITC experiments; His6 (N, cleaved yes); made in house; host or cells: E. coli BL21 Star (DE3)
T1 sequence (P48598 69-248 isoform P48598-2): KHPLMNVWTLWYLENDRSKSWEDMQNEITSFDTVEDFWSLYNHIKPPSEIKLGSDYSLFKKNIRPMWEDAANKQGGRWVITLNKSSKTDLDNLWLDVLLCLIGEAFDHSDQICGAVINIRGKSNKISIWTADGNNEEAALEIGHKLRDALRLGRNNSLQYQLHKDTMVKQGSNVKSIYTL

T2: eIF4E (residues 69–248), purified (Drosophila melanogaster, UniProt P48598-2 69-248)
T2 construct: eIF4E, Drosophila melanogaster, residues 69–248; the methods say the tag was cleaved with HRV3C; also called truncated eIF4E; eIF4E trunc; not shown: His6, N-terminal, cleaved
T2 sequence (looked up): T1 sequence (P48598 69-248 isoform P48598-2)

B1: CUP L+NC peptide fused C-terminally to GB1 (domain or fragment)
chain: ALMHRSKESFVMPRIATCDDIELEGRLRRMNIWRT
B2: Thor C peptide fused C-terminally to GB1 (domain or fragment)
chain: TKLIYERAFMKNLR
B3: 4E-T C peptide fused C-terminally to GB1 (domain or fragment)
chain: RYSKVDLLALRYE
B4: CUP C peptide fused C-terminally to GB1 (domain or fragment)
chain: KSYTRSRLMDIRNGMFN
B5: Thor R,G,T: Thor R81A, G82A, T83A (protein, UniProt Q9XZ56 1-117, looked up, variant R81A G82A T83A)
Eukaryotic translation …: MSASPTARQAITQALPMITRKVVISDPIQMPEVYSSTPGGTLYSTTPGGTKLIYERAFMKNLRGSPLSQTPPSNVPSCLLAAAPRTPFRKCVPVPTELIKQTKSLKIEDQEQFQLDL

Assays:
[1] = target: T1, Dm eIF4E (residues 69–248, WT); experiment: ITC, binding to eIF4E (WT, residues 69–248); settings: for KD: VP-ITC, 20 mM Na-phosphate (pH 7.0), 150 mM NaCl, GB1-fused peptides (C+NC 10 μM, C 50 μM, L+NC 100 μM CUP or 200 μM Thor and 4E-T, eIF4G 20 μM) into eIF4E WT 1–20 μM, one-site model, each experiment repeated twice, nb = no binding; for KD / Molar ratio / TΔS / ΔG / ΔH: 20 °C; for Molar ratio / TΔS / ΔG / ΔH: eIF4E WT (69–248), pH 7.0, nb = no binding
Method: Unless indicated otherwise, all the proteins were expressed in E. coli BL21 Star (DE3) cells (Invitrogen) that were grown in LB medium overnight at 20 °C. The lysis buffers were supplemented with DNaseI (5 μg ml^−1), lysozyme (1 mg ml^−1) and protease inhibitor cocktail (Roche). The truncated His6-eIF4E (residues 69–248) that was used in the ITC experiments and in Figs 2c and 5b was purified in lysis buffer containing 50 mM HEPES (pH 7.2), 300 mM NaCl, 20 mM imidazole and 2 mM β-mercaptoethanol using Ni^2+-affinity chromatography (HisTrap HP 5 ml, GE Healthcare) and eluted with a gradient of 20–500 mM imidazole. After the cleavage of the His6-tag with HRV3C protease (homemade), the protein was further purified using a heparin column (HiTrap Heparin HP 5 ml, GE Healthcare), followed by size exclusion chromatography (Superdex 75 16/60, GE Healthcare) in 20 mM Na-phosphate (pH 7.0), 300 mM NaCl and 2 mM dithiothreitol (DTT).
For the ITC measurements and the competition assays shown in Figs 4 and 5d–g, the 4E-BP peptides corresponding to the canonical (C) motifs, the combined (C+NC) motifs or L+NC were expressed with an HRV3C cleavable N-terminal MBP-tag and a non-cleavable C-terminal GB1 domain. The cells were lysed by sonication in lysis buffer containing 50 mM HEPES (pH 7.2), 300 mM NaCl and 2 mM DTT. The proteins were purified from the cleared lysates using amylose resin (New England Biolabs) followed by the cleavage of the MBP tag with HRV3C protease overnight at 4 °C. The proteins were further purified by size exclusion chromatography (Superdex 75 16/60, GE Healthcare) in 20 mM Na-phosphate (pH 7.0), 300 mM NaCl and 2 mM DTT. For the eIF4G fragment (residues 578–650) the MBP was removed after cleavage with TEV protease through an additional anion exchange chromatography (HiTrap Q HP 5 ml, GE Healthcare) before the final gel filtration.
The ITC experiments were performed using a VP-ITC microcalorimeter (MicroCal) at 20 °C. The solution of eIF4E (residues 69–248, WT or mutant: 1–20 μM) in the calorimetric cell was titrated with tenfold concentrated solutions of GB1-stabilized peptides corresponding to 4E-BPs C+NC (10 μM), C (50 μM), L+NC (100 μM CUP, 200 μM Thor and 4E-T) or eIF4G (residues 578–650, 20 μM) that were dissolved in the same buffer (20 mM Na-phosphate (pH 7.0) and 150 mM NaCl). The titration experiments consisted of an initial injection of 2 μl followed by 28 injections of 10 μl at an interval of 240 s. Each binding experiment was repeated twice. The thermodynamic parameters were estimated using a one-site binding model (Origin version 7.0), whereby the datapoint of the first injection was removed for the analysis.
(d) minimal regions for binding to eIF4E (wild-type (WT), residues 69–248). The top panels represent the raw data (μcal sec−1) whereas the bottom panels show the integrated data (kcal mole−1 of injectant) of heat changes that were best-fitted using a one-site binding model. The thermodynamic parameters correspond to heat changes that were detected when 4E-BPs (10 µM) or eIF4G (20 µM) were injected into the calorimetric cell (1.4 mL) containing 1 µM (a,b,c) or 2 µM (d) eIF4E.
Supplementary Figure 4. Thermodynamic parameters for the interaction of eIF4E with 4E-BP peptides. (a–f) ITC profiles for the interaction of eIF4E (WT, residues 69-248) and CUP (a,d), Thor (b,e) and 4E-T (c,f) peptides containing only the canonical motifs (a–c) or the L+NC regions (d–f). The measurements were performed as described in Supplementary
Fig. 3. The solutions contained the peptides corresponding to the canonical motifs (50 µM) or the L+NC regions (100 µM for CUP and 200 µM for Thor and 4E-T). The eIF4E concentration in the calorimetric cell was 5 µM (for the C peptides), 10 µM (for CUP L+NC) and 20 µM (for Thor and 4E-T L+NC peptides).
(1 picture or pasted object on this page, not shown here)

[2] = system: endogenous eIF4E and HA-tagged 4E-BPs in S2 cells; experiment: Immunofluorescence localization in S2 cells; type: cell-based, Drosophila melanogaster; settings: −LMB
Method: S2 cells expressing HA-tagged versions of CUP, Thor and 4E-T or the indicated mutants were treated with Leptomycin B (100 nM; Sigma) or methanol as a control for 12 h. After the LMB treatment, the cells were allowed to adhere to poly-D-lysine–coated coverslips for 15 min and were fixed with 2% paraformaldehyde for 10 min. The cells were then permeabilized with 0.1% Triton X-100 in PBS (10 min) and stained with affinity-purified monoclonal anti-HA (Covance 1:1,000) and polyclonal anti-eIF4E (1:2,000) antibodies in PBS containing 1% BSA for 1 h. Alexa Fluor 594-labeled goat anti-rabbit and 488-labeled anti-mouse antibodies (Invitrogen) were used at dilutions of 1:1,000 and 1:2,000, respectively. The cells were mounted using Fluoromount-G (Southern Biotech). The images were acquired at room temperature using a confocal microscope (TCS SP2; Leica) that was fitted with a Plan-Apochromat × 100 NA 1.40 oil immersion objective and a series of three photomultipliers (Hamamatsu Photonics) controlled with the Leica confocal software (version 2.61). The images were prepared using Photoshop (Adobe). […]
Thor) independent experiments. […] Confocal fluorescent […]
micrographs of fixed S2 cells expressing HA-4E-T and GFP-Tral. The localization of HA-4E-T was determined by indirect immunofluorescence using an anti-HA antibody. The merged pictures show the HA signal in red and the GFP-Tral signal in green. Bar: 5 μm.

[3] = target: T2, eIF4E (residues 69–248), purified; experiment: ITC; VP-ITC, 20 °C; eIF4E (69–248, WT or mutant, 1–20 μM) in the cell, tenfold concentrated GB1-stabilized peptides titrated in; 20 mM Na-phosphate pH 7.0, 150 mM NaCl; one-site binding model; settings: both partners purified
endogenous eIF4E = experiment: Coimmunoprecipitation / m7GTP pull-down with endogenous eIF4E in S2 cell lysates; type: cell-based, Drosophila melanogaster; settings: western blot
Method: The coimmunoprecipitations assays were performed as previously described. For the pull downs using m^7GTP beads, 25 μl of immobilized γ-aminophenyl-m^7GTP (C10-spacer—Jena Bioscience) beads was added to the cell lysates and the mixtures were rotated for 1 h at 4 °C. The beads were washed three times with NET buffer (50 mM Tris (pH 7.4), 150 mM NaCl, 1 mM EDTA and 0.1% Triton X-100). The bound proteins were eluted with 2 × SDS–polyacrylamide gel electrophoresis (SDS–PAGE) sample buffer and analyzed by western blotting (WB). All of the WB experiments were developed with the ECL western blotting detection system (GE Healthcare) as recommended by the manufacturer. The antibodies used in this study are listed in Supplementary Table 2.
Thor and 4E-T) or HA-eIF4G and endogenous eIF4E in S2 cell lysates. The proteins were immunoprecipitated using a polyclonal anti-eIF4E antibody (α-4E). The pre-immune (Pre-I) serum and an HA-tagged version of MBP served as negative controls. The inputs (1%) and immunoprecipitates (10%) were analyzed by western blotting using anti-HA and anti-eIF4E antibodies. (b,c) The interaction of HA-tagged full length 4E-BPs (CUP, Thor and 4E-T) and eIF4G with endogenous eIF4E was analyzed by coimmunoprecipitation using anti-HA antibodies (b) or by pull-down using m7GTP-Sepharose beads (c). HA-MBP served as a negative control. The inputs (10%) and immunoprecipitates (30%) were analyzed by western blotting using anti-HA and anti-eIF4E antibodies. (d) Western blot showing the interaction of HA-Thor (full-length either wild-type or mutants) with endogenous eIF4E in S2 cells. The proteins were immunoprecipitated using anti-HA antibodies and analyzed as described in (b,c). (e) Western blot showing the interaction of HA-4E-T (residues 1–511, wild-type or mutants) with endogenous eIF4E. The proteins were immunoprecipitated using anti-HA antibodies and analyzed as described in (b,c). The size markers (kDa) are shown to the right of each panel. Mutants are described in Supplementary Table 1.

| Molecule | TΔS [1] | ΔG [1] | Kd [3] | dH [3] | stoichiometry N [3] | further results |
| --- | --- | --- | --- | --- | --- | --- |
| 4E-T L+NC: 4E-T residues 22–44, linker+non-canonical | nb | nb | – | – | – | KD [1]: nb; Molar ratio [1]: nb; ΔH [1]: nb |
| 4E-T NC: 4E-T residues 31–44, non-canonical motif | – | – | – | – | – | localization of endogenous eIF4E (in words) ([2]; S2 cells overexpressing 4E-BP or mutant): the number of eIF4E-positive P-bodies was reduced; localization of the 4E-BP (in words) ([2]; S2 cells, steady-state): still localized to P-bodies |
| CUP L+NC: CUP residues 342–376, linker+non-canonical, C-terminal GB1 (ALMHRSKESFVMPRIATCDDIELEGRLRRMNIWRT-GB1; UniProt Q9VMA3 342-376, looked up, fragment) | -9.1 kcal/mol | -9.38 kcal/mol | – | – | – | KD of L+NC relative to C motif (in words) ([1]; eIF4E WT): comparable to that of the C motif; binding thermodynamics (in words) ([1]; eIF4E WT): enthalpically driven; interaction with eIF4E (in words) ([1]; eIF4E WT, L+NC peptides): interacted with eIF4E at detectable levels |
| Thor L+NC: Thor residues 64–83, linker+non-canonical | nb | nb | – | – | – | KD [1]: nb; Molar ratio [1]: nb; ΔH [1]: nb |
| B1 | – | – | 103 nM | -18.5 ± 0.2 kcal/mol | 0.98 ± 0.01 | – |
| B2 | – | – | 2260 nM | -12.1 ± 2.8 kcal/mol | 1.06 ± 0.01 | – |
| B3 | – | – | 16 nM | -18.6 ± 0.7 kcal/mol | 0.95 ± 0.01 | – |
| B4 | – | – | 160 nM | -16.84 ± 0.04 kcal/mol | 1.01 ± 0.01 | – |
| B5 | – | – | – | – | – | interaction with endogenous eIF4E (in words) (endogenous eIF4E): ineffective |
